Patent EP4782541A1 (Nanjing Probio Biotech Co., Ltd., dated 2026)

B1: BsAb-5 (bispecific antibody, human IgG1, lambda)
chain: EVQLVESGGGLVQPGGSLRLSCAASGFISRFYAMGWYRQAPGKQRELVARISSMGWTYYADSVKGRFTISIDNSKNTLYLQMNSLRAEDTAVYYCNARNLWGQGTLVTVSSGGGGSGGGGSGGGGSEVQLVESGGGLVQPGGSLRLSCAASGFISRFYAMGWYRQAPGKQRELVARISSMGWTYYADSVKGRFTISIDNSKNTLYLQMNSLRAEDTAVYYCNARNLWGQGTLVTVSSDKTHTCPPCPAPESTRGPSVFLFPPKPKDTLMISRTPEVTCVVVDVSHEDPEVKFNWYVDGVEVHNAKTKPREEQYNSTYRVVSVLTVLHQDWLNGKEYKCKVSNKALPAPIEKTISKAKGQPREPQVCTLPPSRDELTKNQVSLSCAVKGFYPSDIAVEWESNGQPENNYKTTPPVLDSDGSFFLVSKLTVDKSRWQQGNVFSCSVMHEALHNHYTQKSLSLSPGK
heavy: EVQLVESGGGLVQPGRSLRLSCAASGFTFNTYAMNWVRQAPGKGLEWVARIRSKYNNYATYYADSVKDRFTISRDDSKSIAYLQMNSLKTEDTAVYYCVRHGNFGNSYVSWFAYWGQGTLVTVSSASTKGPSVFPLAPSSKSTSGGTAALGCLVKDYFPEPVTVSWNSGALTSGVHTFPAVLQSSGLYSLSSVVTVPSSSLGTQTYICNVNHKPSNTKVDKKVEPKSCDKTHTCPPCPAPESTRGPSVFLFPPKPKDTLMISRTPEVTCVVVDVSHEDPEVKFNWYVDGVEVHNAKTKPREEQYNSTYRVVSVLTVLHQDWLNGKEYKCKVSNKALPAPIEKTISKAKGQPREPQVYTLPPCRDELTKNQVSLWCLVKGFYPSDIAVEWESNGQPENNYKTTPPVLDSDGSFFLYSKLTVDKSRWQQGNVFSCSVMHEALHNHYTQKSLSLSPGK
light: QTVVTQEPSLTVSPGGTVTLTCRSSTGAVTTSNYANWVQQKPGQAPRGLIGGTNKRAPGVPARFSGSLLGGKAALTLSGVQPEDEAEYFCALWYSNLWVFGGGTKLTVLGQPKAAPSVTLFPPSSEELQANKATLVCLISDFYPGAVTVAWKADSSPVKAGVETTTPSKQSNNKYAASSYLSLTPEQWKSHRSYSCQVTHEGSTVEKTVAPTECS
notes: also called BsAb-05
B2: BsAb-4 (bispecific antibody, human IgG1, lambda)
chain: EVQLVESGGGLVQPGGSLRLSCAASGRSFSSFQMGWFRQAPGKEREFVAASGWSGGPTYYWDSVIGRFTISTDNSKNTLYLQMNSLRAEDTAVYYCYEDRVLSGRPVRYWGQGTLVTVSSDKTHTCPPCPAPESTRGPSVFLFPPKPKDTLMISRTPEVTCVVVDVSHEDPEVKFNWYVDGVEVHNAKTKPREEQYNSTYRVVSVLTVLHQDWLNGKEYKCKVSNKALPAPIEKTISKAKGQPREPQVCTLPPSRDELTKNQVSLSCAVKGFYPSDIAVEWESNGQPENNYKTTPPVLDSDGSFFLVSKLTVDKSRWQQGNVFSCSVMHEALHNHYTQKSLSLSPGK
heavy: B1 heavy
light: B1 light
notes: also called BsAb-04

Legend:
[1] = target: T1, human CD3 (on Jurkat cells) (human, UniProt P07766 23-207; P09693 23-182; P04234 22-171); test: flow cytometry on Jurkat cells expressing human CD3
T1 construct: whole, on cells

[2] = target: T2, human ROR1 (on CHO-K1/ROR1 cells and ROR1 tumour cell lines) (human, UniProt Q01973 30-937); test: flow cytometry on CHO-K1/ROR1 cells overexpressing human ROR1
T2 construct: whole, on cells; also called receptor tyrosine kinase-like orphan receptor 1
T2 sequence (Q01973 30-937): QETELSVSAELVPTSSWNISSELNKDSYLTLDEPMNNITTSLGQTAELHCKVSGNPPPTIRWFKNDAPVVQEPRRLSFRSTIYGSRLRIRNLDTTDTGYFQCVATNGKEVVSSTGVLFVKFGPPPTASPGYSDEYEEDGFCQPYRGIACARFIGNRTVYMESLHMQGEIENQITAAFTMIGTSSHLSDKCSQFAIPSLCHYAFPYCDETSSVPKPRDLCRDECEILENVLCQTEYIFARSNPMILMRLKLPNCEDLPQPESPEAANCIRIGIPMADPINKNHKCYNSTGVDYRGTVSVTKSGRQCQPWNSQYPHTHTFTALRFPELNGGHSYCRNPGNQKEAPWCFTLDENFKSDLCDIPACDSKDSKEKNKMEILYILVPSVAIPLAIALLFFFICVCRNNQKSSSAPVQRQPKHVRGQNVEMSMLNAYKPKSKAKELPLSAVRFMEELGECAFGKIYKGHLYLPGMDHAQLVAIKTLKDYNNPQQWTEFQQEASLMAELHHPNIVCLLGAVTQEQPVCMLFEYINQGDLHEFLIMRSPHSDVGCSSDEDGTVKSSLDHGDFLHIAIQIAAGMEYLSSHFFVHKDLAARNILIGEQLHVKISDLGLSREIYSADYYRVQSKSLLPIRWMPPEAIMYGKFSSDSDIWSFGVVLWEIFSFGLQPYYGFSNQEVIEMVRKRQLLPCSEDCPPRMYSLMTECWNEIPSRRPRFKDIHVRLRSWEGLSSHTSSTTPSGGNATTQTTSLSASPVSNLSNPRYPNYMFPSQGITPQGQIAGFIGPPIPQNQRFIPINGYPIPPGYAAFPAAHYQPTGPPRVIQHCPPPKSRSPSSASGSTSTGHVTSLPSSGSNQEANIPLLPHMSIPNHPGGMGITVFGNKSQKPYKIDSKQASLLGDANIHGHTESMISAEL

T1 sequence (P07766 23-207, chain 1 of 3): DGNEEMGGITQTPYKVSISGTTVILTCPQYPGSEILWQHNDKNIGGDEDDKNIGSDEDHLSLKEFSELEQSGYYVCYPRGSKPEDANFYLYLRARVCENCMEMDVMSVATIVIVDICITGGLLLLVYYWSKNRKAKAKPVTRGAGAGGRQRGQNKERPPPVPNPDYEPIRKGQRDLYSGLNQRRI
T1 sequence (P09693 23-182, chain 2 of 3): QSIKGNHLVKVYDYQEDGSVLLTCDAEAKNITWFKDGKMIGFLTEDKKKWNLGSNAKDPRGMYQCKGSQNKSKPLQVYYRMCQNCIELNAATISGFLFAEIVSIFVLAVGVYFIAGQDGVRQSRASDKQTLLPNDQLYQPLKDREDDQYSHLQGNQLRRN
T1 sequence (P04234 22-171, chain 3 of 3): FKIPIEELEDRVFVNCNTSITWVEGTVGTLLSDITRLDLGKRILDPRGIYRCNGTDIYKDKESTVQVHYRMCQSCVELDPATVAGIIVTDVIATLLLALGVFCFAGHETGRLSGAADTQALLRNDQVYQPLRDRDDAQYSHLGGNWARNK

Binder	EC50 [1] [pM]	EC50 [2] [pM]
B1	913	109
B2	629	373
